Results published in patent US20210363269A1 (ALX ONCOLOGY, published 2021).
Residue numbers refer to the chain shown, from its start. Blank lines part the entries; values can stand above or below the binder they belong to.

Tests used:
cynomolgus SIRP-α = target: T1, cynomolgus SIRP-α (cynomolgus monkey, UniProt Q5TFQ8 30-148 (human entry), limits assumed); assay: SPR
T1 construct: also called cyno1
T1 chain: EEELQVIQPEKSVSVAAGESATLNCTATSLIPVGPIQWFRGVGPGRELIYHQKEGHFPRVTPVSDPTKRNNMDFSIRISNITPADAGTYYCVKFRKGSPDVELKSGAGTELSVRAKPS
Outline: (§1)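 KD values were derived as kd/ka from apparent rate constants obtained by globally fitting double-referenced data to a simple Langmuir model. The data came from a ProteOn XPR36 biosensor run at 25° C in PBS pH 7.4 with 0.01% Tween-20. There, purified antibodies sat on a GLC chip by amine coupling or on an NLC chip by biotinylated Protein A capture, and SIRP analytes were injected in one-shot kinetic mode at nominal concentrations set from A280 absorbance.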

human SIRP-α v1 [1] = target: T2, human SIRP-α v1 (human, UniProt P78324 31-149); assay: SPR
T2 construct: also called Human v1; Human V1
T2 sequence (P78324 31-149 limits assumed): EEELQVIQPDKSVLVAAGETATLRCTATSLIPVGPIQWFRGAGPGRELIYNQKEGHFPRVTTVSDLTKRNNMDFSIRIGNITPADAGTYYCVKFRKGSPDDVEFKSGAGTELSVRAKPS
Outline: as §1

human SIRP-α v2 = target: T3, human SIRP-α v2 (human); assay: SPR
T3 construct: also called Human v2; Human V2
T3 sequence (chain, as listed by the source limits assumed): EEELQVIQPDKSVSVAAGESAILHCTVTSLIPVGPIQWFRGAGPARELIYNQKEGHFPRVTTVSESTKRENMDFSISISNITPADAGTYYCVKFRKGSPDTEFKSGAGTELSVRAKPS
Outline: as §1

BALBc mouse SIRP-α = target: T4, BALBc mouse SIRP-α (mouse (BALB/c strain)); assay: SPR
T4 chain: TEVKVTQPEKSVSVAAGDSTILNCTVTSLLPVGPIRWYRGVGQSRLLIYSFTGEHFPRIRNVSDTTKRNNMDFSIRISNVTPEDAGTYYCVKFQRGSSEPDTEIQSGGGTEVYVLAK
Outline: as §1

human SIRPγ isoform 1 [2] = target: T5, human SIRPγ isoform 1 (human, UniProt Q9P1W8 29-147); assay: SPR
T5 construct: also called Gamma; Human SIRPg
Outline: as §1
T5 sequence (Q9P1W8 29-147 limits assumed): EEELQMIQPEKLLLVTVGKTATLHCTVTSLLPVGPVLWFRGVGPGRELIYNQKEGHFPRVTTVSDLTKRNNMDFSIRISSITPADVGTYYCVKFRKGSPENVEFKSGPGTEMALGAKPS

human SIRP-α v1 [3] = target: T2, human SIRP-α v1; assay: SPR; remark: listed apart in the source
Outline: as §1

[4] = target: T6, human SIRP-α v2 D1 domain (human); assay: SPR, Langmuir fit
T6 construct: also called human v2
T6 sequence (chain, as listed by the source limits assumed): as the sequence (chain, as listed by the source limits assumed) above
Outline: (§2)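 Pre-filtered culture media supplied the scFv-Fc antibody clones, which were captured by anti-human IgG Fc amine-coupled (about 4000 RU) to a GLC chip on a ProteOn XPR36. SIRP analytes were flowed in PBS pH 7.4 with 0.01% Tween-20 at 25° C. Interspot and buffer-blank responses were subtracted from the data, which were then fitted to a 1:1 Langmuir model. Dissociation rate constants (koff) were derived from this fitting.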

[5] = target: T7, human SIRP-α v1 D1 domain (human, UniProt P78324 31-149); assay: SPR, Langmuir fit
T7 construct: also called human v1
T7 sequence (P78324 31-149 limits assumed): as the sequence (P78324 31-149 limits assumed) above
Outline: as §2

[6] = target: T8, cynomolgus SIRP-α D1 domain (cyno1) (cynomolgus monkey, UniProt Q5TFQ8 30-148 (human entry), limits assumed); assay: SPR, Langmuir fit
T8 chain: T1 chain
Outline: as §2

human SIRPγ isoform 1 [7] = target: T9, human SIRPγ isoform 1 (human, UniProt Q9P1W8 29-147); assay: SPR, Langmuir fit
T9 construct: also called SIRPg; sirpg
Outline: as §2
T9 sequence (Q9P1W8 29-147 limits assumed): as the sequence (Q9P1W8 29-147 limits assumed) above

[8] = target: T10, C57BL/6 mouse SIRP-α D1 domain (mouse (C57BL/6 strain), UniProt P97797 32-148); assay: SPR
T10 sequence: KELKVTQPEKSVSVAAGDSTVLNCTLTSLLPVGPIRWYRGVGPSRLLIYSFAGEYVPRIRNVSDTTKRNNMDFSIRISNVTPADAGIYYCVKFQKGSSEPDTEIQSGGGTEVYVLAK
Outline: as §2

koff (cynomolgus SIRP-α): 0.00033 s⁻¹
koff (human SIRP-α v1 [1]): 0.000133 s⁻¹
koff (human SIRP-α v2): 0.000267 s⁻¹
koff (BALBc mouse SIRP-α): 0.00374 s⁻¹
koff (human SIRPγ isoform 1 [2]): 0.000203 s⁻¹
B1: Hum1/AB25_HC_wt (antibody, V domains shown)
VH: DVQLVESGGGVVRPGESLRLSCEASGFTFSSNAMSWVRQAPGKGLEWVAGISSGSDTYYGDSVKGRLTISRDNSKNILYLQMNSLTAEDTAVYYCARETWNHLFDYWGLGTLVTVSS
VL: SYELTQPPSVSVSPGQTARITCSGGSYSSYYYAWYQQKPGQAPVTLIYSDDKRPSNIPERFSGSSSGTTVTLTISGVQAEDEADYYCGGYDQSSYTNPFGGGTKLTVL

koff (cynomolgus SIRP-α): 0.000303 s⁻¹
koff (human SIRP-α v1 [1]): 0.000124 s⁻¹
koff (human SIRP-α v2): 0.000239 s⁻¹
koff (BALBc mouse SIRP-α): 0.00246 s⁻¹
koff (human SIRPγ isoform 1 [2]): 0.000136 s⁻¹
B2: Hum1/AB66_HC_wt (antibody, V domains shown)
VH: DVQLVESGGGVVRPGESLRLSCAASGFTFSSYAMSWVRQAPGKGLEWLAGISAGGSDTYYIDSVKGRFTISRDNPKNSLYLQMSSLTAEDTAVYYCARETWNHLFDYWGLGTLVTVSS
VL: B1 VL

koff (cynomolgus SIRP-α): 0.000379 s⁻¹
koff (human SIRP-α v1 [1]): 0.000192 s⁻¹
koff (human SIRP-α v2): 0.000292 s⁻¹
koff (BALBc mouse SIRP-α): 0.0037 s⁻¹
koff (human SIRPγ isoform 1 [2]): 0.000178 s⁻¹
B3: Hum1/AB27_HC_wt (antibody, V domains shown)
VH: DVQLVESGGGVVRPGESLRLSCAVSGFRFSSYAMSWVRQAPGKGLEWVSGISSGGDTYYVDSVKGRFTISRDNSKNTLYLQVNSLTAEDTAIYYCARETWNHLFDYWGLGTLVTVSS
VL: B1 VL

koff (cynomolgus SIRP-α): 0.000432 s⁻¹
koff (human SIRP-α v1 [1]): 0.000137 s⁻¹
koff (human SIRP-α v2): 0.000438 s⁻¹
koff (BALBc mouse SIRP-α): 0.00231 s⁻¹
koff (human SIRPγ isoform 1 [2]): 0.00021 s⁻¹
B4: Hum3/AB21_HC_wt (antibody, V domains shown)
VH: B2 VH with Y32N, I61P, D62A, P75S, S78T, S84N, S85T
VL: SYELTQPPSVSVSPGQTARITCSGGDYYSTYYAWYQQKPGQAPVTVIHSDDKRPSDIPERFSGSSSGTTVTLTISGVQAEDEADYYCGGYDGRTYINTFGGGTKLTVL

koff (cynomolgus SIRP-α): 0.000375 s⁻¹
koff (human SIRP-α v1 [1]): 5.94e-05 s⁻¹
koff (human SIRP-α v2): 0.000353 s⁻¹
koff (BALBc mouse SIRP-α): 0.000227 s⁻¹
koff (human SIRPγ isoform 1 [2]): 0.000169 s⁻¹
B5: Hum3/AB25_HC_wt (antibody, V domains shown)
VH: B1 VH
VL: B4 VL

koff (cynomolgus SIRP-α): 0.000464 s⁻¹
koff (human SIRP-α v1 [1]): 0.000216 s⁻¹
koff (human SIRP-α v2): 0.000396 s⁻¹
koff (BALBc mouse SIRP-α): 0.000202 s⁻¹
koff (human SIRPγ isoform 1 [2]): 0.000207 s⁻¹
B6: Hum3/AB27_HC_wt (antibody, V domains shown)
VH: B3 VH
VL: B4 VL

Kd (human SIRP-α v1 [3]): 0.0215 nM
koff (cynomolgus SIRP-α): 0.000683 s⁻¹
koff (human SIRP-α v1 [1]): 0.000315 s⁻¹
koff (human SIRP-α v2): 0.000579 s⁻¹
koff (BALBc mouse SIRP-α): 0.005 s⁻¹
koff (human SIRPγ isoform 1 [2]): 0.000407 s⁻¹
B7: antibody 27 (antibody, V domains shown)
VH: B3 VH
VL: ALTQPASVSADLGETVKITCSGGDSSSHYYGWYQQKSPGSAPVTVIYSDDERPSDIPSRFSGSASGSTATLTITGVRVEDEAIYYCGAYDGSTYANTFGAGTTLTVL
notes: also called AB27; S27

koff [4]: 5.47e-05 s⁻¹
koff [5]: 7.06e-05 s⁻¹
koff [6]: 2.49e-05 s⁻¹
koff (human SIRPγ isoform 1 [7]): 2.12e-05 s⁻¹
B8: S218 (scFv, V domains shown)
VH: DVQLVESGGGVVRPGESLTLSCTASGFTFTSSTMNWVRQAPGEGLDWVSSISTSGVITYYADSVKGRATISRDNSKNTLYLRLFSLRADDTAIYYCATDTFDHWGPGTLVTVSS
VL: ALTQPASVSANPGETVKITCFGSSGNYGWFQQKSPGSAPVTVIHYNNKRPSDIPSRFSGSKSGSTGTLTITGVRAEDEAVYFCGAWETGSATFGAGTTLTVL
notes: scFv-Fc format (VL-linker-VH on human IgG1 Fc)
binding result [8]: no binding (tested: Koff > 5 × 10^3 (legend))
